B1: AI3P44/N (bispecific antibody, human IgG1, kappa, lambda, L234A L235A)
heavy: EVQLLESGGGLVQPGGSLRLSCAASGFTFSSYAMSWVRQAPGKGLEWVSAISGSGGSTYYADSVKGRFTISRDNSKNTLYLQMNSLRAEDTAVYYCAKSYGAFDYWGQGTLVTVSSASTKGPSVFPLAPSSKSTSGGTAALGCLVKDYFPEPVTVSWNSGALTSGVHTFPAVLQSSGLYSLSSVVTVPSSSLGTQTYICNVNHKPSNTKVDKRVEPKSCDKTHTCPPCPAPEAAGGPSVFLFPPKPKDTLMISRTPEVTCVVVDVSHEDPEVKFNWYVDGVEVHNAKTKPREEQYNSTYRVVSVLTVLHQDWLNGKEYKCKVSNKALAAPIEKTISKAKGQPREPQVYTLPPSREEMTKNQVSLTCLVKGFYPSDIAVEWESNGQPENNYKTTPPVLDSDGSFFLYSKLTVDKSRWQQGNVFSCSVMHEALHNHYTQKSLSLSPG
light 1: not shown
light 2: NFMLTQPHSVSESPGKTVTISCTRSSGSISYDDVQWYQQRPGSSPTTVIYFNNLRPSGVPDRFSGSIDSSSNSASLTISGLKTEDEADYYCQSWDLRHRVFGGGTKLTVLGQPKAAPSVTLFPPSSEELQANKATLVCLISDFYPGAVTVAWKADSSPVKAGVETTTPSKQSNNKYAASSYLSLTPEQWKSHRSYSCQVTHEGSTVEKTVAPTECS
notes: also called GPC3×CD28 bispecific antibody; GPC3×CD28 κλ-body
B2: AI10P44/N (bispecific antibody, human IgG1, kappa, lambda, L234A L235A)
heavy: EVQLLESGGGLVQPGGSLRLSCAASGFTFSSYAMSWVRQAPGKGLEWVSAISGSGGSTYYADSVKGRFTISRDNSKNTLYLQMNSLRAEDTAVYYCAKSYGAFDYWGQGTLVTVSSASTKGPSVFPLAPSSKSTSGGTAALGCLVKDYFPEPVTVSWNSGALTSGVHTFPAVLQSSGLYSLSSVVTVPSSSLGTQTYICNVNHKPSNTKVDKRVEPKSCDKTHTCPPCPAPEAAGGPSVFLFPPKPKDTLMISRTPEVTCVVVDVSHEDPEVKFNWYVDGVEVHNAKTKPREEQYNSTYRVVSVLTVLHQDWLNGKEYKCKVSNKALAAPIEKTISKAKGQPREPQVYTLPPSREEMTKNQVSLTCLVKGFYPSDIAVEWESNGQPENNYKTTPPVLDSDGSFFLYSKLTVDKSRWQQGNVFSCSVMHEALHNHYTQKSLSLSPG
light 1: DIVMTQTPLSLSVTPGQPASISCKSSGDLLEFAGKTYLYWYLQKPGQPPQLLIYEVSNRFSGVPDRFSGSGSGTDFTLKISRVEAEDVGVYYCMQAHGSKIGFTFGQGTKVEIKRTVAAPSVFIFPPSDEQLKSGTASVVCLLNNFYPREAKVQWKVDNALQSGNSQESVTEQDSKDSTYSLSSTLTLSKADYEKHKVYACEVTHQGLSSPVTKSFNRGEC
light 2: B1 light 2
notes: also called AI10-containing bispecific antibody; GPC3×CD28 bispecific antibody
B3: AI3P30/N (bispecific antibody, human IgG1, kappa, lambda, L234A L235A)
heavy: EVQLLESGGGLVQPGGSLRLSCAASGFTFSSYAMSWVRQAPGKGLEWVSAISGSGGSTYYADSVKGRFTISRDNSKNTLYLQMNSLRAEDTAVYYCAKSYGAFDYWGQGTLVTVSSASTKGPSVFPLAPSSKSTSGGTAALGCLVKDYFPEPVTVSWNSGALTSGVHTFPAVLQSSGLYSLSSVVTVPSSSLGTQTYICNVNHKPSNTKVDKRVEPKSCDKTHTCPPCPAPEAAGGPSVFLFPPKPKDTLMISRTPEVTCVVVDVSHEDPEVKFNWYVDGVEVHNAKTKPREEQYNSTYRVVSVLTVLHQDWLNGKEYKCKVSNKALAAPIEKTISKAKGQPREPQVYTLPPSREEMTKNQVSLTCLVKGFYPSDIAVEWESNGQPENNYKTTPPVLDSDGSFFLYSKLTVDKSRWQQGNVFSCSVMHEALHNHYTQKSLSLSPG
light 1: not shown
light 2: QSALTQPASVSGSPGQSITISCTGTSSDVPEDALVSWYQQHPGKAPKLMIYYDSTRPSGVSNRFSGSKSGNTASLTISGLQAEDEADYYCSSWDFGTGSKVFGGGTKLTVLGQPKAAPSVTLFPPSSEELQANKATLVCLISDFYPGAVTVAWKADSSPVKAGVETTTPSKQSNNKYAASSYLSLTPEQWKSHRSYSCQVTHEGSTVEKTVAPTECS
notes: also called GPC3×CD28 bispecific antibody
B4: AI10 anti-CD28 bivalent mAb (antibody, V domains shown)
VH: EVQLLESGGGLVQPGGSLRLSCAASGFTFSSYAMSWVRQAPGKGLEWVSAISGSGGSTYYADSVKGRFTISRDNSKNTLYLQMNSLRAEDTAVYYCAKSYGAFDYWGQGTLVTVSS
VL: DIVMTQTPLSLSVTPGQPASISCKSSGDLLEFAGKTYLYWYLQKPGQPPQLLIYEVSNRFSGVPDRFSGSGSGTDFTLKISRVEAEDVGVYYCMQAHGSKIGFTFGQGTKVEIK

Columns and labels:
human CD28 [1] = target: T1, human CD28 (human, UniProt P10747 19-220); assay: flow cytometry on Jurkat cells
T1 construct: whole, on cells; also called huCD28
Experimental: (§1) Cells were harvested, checked for viability, and counted. 200'000 cells were incubated for 15 minutes at 4° C. with increasing concentrations of the antibodies diluted in FACS buffer (PBS 2% BSA). Cells were washed twice with cold FACS buffer and re-incubated for further 15 minutes at 4° C. with a suitable anti-human IgG secondary antibody. Cells were washed twice with cold FACS buffer and resuspended in 150 μl FACS buffer with a compatible viability marker. Binding of antibodies to living cells was measured by flow cytometry using a Cytoflex Platform (Beckman Coulter). Data was analyzed with FlowJo™ v10 software (BD Life Sciences) and dose-response binding curves were drawn using GraphPad Prism 9 software. AD84 GPC3 arm of the GPC3×CD3 bispecific antibody and P44, P30, P111 GPC3 arms of the GPC3×CD28 bispecific antibodies of this invention were selected from this screening process based on their specificity and binding signal intensity to GPC3 positive cells.
Examples of cells that can be used include GPC3 positive cell lines such as the gastric carcinoma cell line FU97 (JCRB1074), CD28 positive cell lines such as the leukemic Jurkat T cells as well as GPC3/CD28 double negative cell line, such as the leukemic TIB-153 cells. Cell staining and binding assessment was performed as described in Example 6. An irrelevant hIgG1 mAb served as negative isotype control and was used in all shown experiments for comparison. Binding data on FU97 cells (FIG. 2A) emphasizes the range of binding affinities for huGPC3 of the selected anti-GPC3 arms of the invention, P44 and P30. Both P44 and P30 arms are binding to membrane distal domains within GPC3. Binding on CD3 positive Jurkat cells highlight how these two CD28×GPC3 bispecific antibodies sharing the same anti-CD28 arm (e.g. AI3) bind similarly to CD28 positive cells (FIG. 2B).

human CD28 [2] = target: T1, human CD28; assay: flow cytometry, bivalent mAb on Jurkat cells
Experimental: as §1
The binding capacity of the anti-CD28 antibody arms of the invention, tested as bivalent mAbs, was assessed using Jurkat cells (Jurkat Clone E6-1, ATCC TIB 152) by flow cytometry. The flow cytometry methodology was the same as the one described above. AI3 and AI10 CD28 binding arms were selected from this screening process based on their specificity and binding signal intensity to CD28 positive cells.

T1 sequence (P10747 19-220): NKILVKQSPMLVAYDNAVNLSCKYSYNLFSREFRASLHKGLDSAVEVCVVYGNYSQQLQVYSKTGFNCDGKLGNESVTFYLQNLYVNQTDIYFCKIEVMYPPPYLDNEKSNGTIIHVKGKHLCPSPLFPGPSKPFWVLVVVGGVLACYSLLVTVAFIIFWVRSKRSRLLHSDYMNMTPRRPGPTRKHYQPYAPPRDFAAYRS

Row | Binder | binding result (human CD28 [1]) | binding result (human CD28 [2])
1 | B1 | binds | –
2 | B2 | binds | –
3 | B3 | binds | –
4 | B4 | – | binds

Reference: patent US20230287146A1 (LAMKAP BIO GAMMA, published 2023)
